Test results: the supplement of paper PMC10567573

B1: CCDC6 (parent)
chain: FTPPTSLTRAGMSYYNSPGLHVQH
B2: CCDC89 (parent)
chain: LNAELEEKMMQEAEKLKAQGEYSR

Variants of: B1
Assay: protein stability index of a GFP-peptide fusion (GPS, HEK-293T) (PSI 1-6); higher = more stable
Conditions: c terminus: a fixed tail appended
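Note: lentivirally expressed fusions sorted by FACS into six bins by GFP to DsRed ratio, PSI derived from sequencing read proportions per bin multiplied by bin number.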

Protein stability index, by site and new letter:
Q23: Y 2.06; F 1.92; T 1.73; M 1.31; K 2.34; D 1.69; P 1.79; A 1.74; N 1.2; I 2.46; L 2; R 2.08; S 1.43; V 2.3; C 1.65; G 1.56; H 1.88; W 3.23
N16: S 1.65; M 1.89; C 2.06; H 2.12; Y 1.77; I 1.98; Q 1.94; P 1.89; R 1.42; F 1.33; T 2.17; L 2.09; G 1.53; D 2.33; E 1.62; K 1.95; A 2.42; V 2.32
G19: W 1.8; F 2.45; V 3.1; E 2.1; K 2.27; Y 1.96; N 2.09; M 2.08; A 1.98; R 2.13; I 1.56; D 2.22; Q 2.87; T 1.86; S 1.73; C 1.98; H 1.96; L 1.66
Y15: C 1.99; A 2.24; M 1.92; P 2.57; H 2.11; S 2.21; D 2.58; W 3.27; V 2.89; N 2.23; I 2.18; L 2.22; F 2.5; Q 2.45; K 2.33; R 2.33; E 2.35; G 2.37; T 2.51
H24: P 2.24; M 2.9; R 1.73; G 1.77; T 1.85; C 1.66; V 1.67; I 3.53; W 1.38; F 2.77; L 1.63; A 1.56; S 1.8; Y 1.19; E 1.84; N 1.15; K 2.7; Q 1.86; D 1.82
Y14: H 2.42; R 3.18; L 1.44; P 1.88; S 2.46; T 2.33; Q 2.65; I 1.64; K 2.66; V 1.32; W 1.67; N 2.6; M 1.7
L20: E 2.27; C 1.68; K 2.25; S 1.84; I 2.36; A 2.14; G 2.93; T 2.35; D 2.02; N 2.4; M 1.8; H 1.72; Q 2.69; F 1.72; Y 1.51; R 2.62; V 2.02; P 1.67; W 2.79
H21: Y 1.25; A 2.11; T 1.91; G 2.2; F 1.61; N 1.97; E 2.75; V 2.58; W 2.36; Q 2.54; P 1.76; D 1.47; K 1.68; C 1.81; L 1.81; I 1.61; R 1.75; M 1.6; S 2.13
P18: K 2.43; V 2.27; I 2.06; T 2.11; A 2.28; L 1.22; E 2.52; G 2.05; N 1.78; M 1.73; S 1.87; D 1.5; F 1.25; W 2.62; Y 2.87; Q 2.16; R 1.95; H 1.38; C 1.21
V22: M 1.64; I 2.14; K 2.25; S 1.74; W 1.22; Q 1.56; Y 2.32; R 2.01; E 2.18; T 1.97; H 1.87; L 1.95; F 1.51; N 1.98; C 1.51; G 2.01; D 1.86; A 1.7
S17: G 2; Q 1.57; N 1.24; A 2.94; W 2.48; Y 1.68; I 1.7; L 1.78; F 2.95; H 1.83; R 1.76; E 1.93; V 1.86; C 1.24; D 2.09; M 1.32; K 2.04; T 1.64

Variants of: B2
Assay: as above
Conditions: c terminus: a fixed tail appended

Protein stability index, by site and new letter:
K8: C 5.15; I 4.25; V 4.86; D 4.78; W 4.5; H 5.36; Y 4.46; L 5.19; A 4.9; S 3.82; Q 5.02; R 4.98; N 4.49; M 4.92; P 5.12
M9: H 5.95; D 4.89; K 3.98; F 4.97; C 5.52; I 5.12; A 5.2; G 5.05; L 3.96
L1: S 5.21; M 5.2; H 4.89; N 4.97; A 5.74; K 5.3; I 4.69; V 4.41; W 4.8; F 5.18; Y 4.95; R 5.17; T 4.98; D 5.54; Q 5.11; P 5.4; C 5.32; E 4.91
E4: M 3.91; W 3.12; K 3.96; H 4.4; T 4.3; F 4.47; I 4.6; R 4.57; L 4.56; Q 4.76; S 5.16; D 4.94; P 3.94; C 3.98; V 3.95; Y 3.74
A3: G 3.57; D 5.08; K 5.28; N 3.89; E 4.45; Q 4.97; P 4.76; R 4.94; Y 4.2; C 4.69; V 5.13; S 4.96; T 5.63; I 4.9; F 4.57; L 5.02; W 4.58; H 4.71
E7: D 4.81; C 5; V 5; A 4.87; Q 4.18; F 4.97; R 3.8; M 4.54; T 4.74; G 4.35; Y 4.61; H 4.5; I 4.64; S 4.01
N2: D 3.11; Q 5.63; W 2.71; T 5.32; S 5.11; M 4.99; A 4.98; P 4.82; R 3.94; I 4.79; F 4.17; H 5.42; G 5.14
L5: D 4.71; T 5.47; P 5.58; H 5.19; Y 4.33; S 5.38; M 5.21; Q 5.55; F 4.73; R 4.7; I 4.88; V 5.09; W 4.71; E 5.46; K 4.53; A 4.86; N 5.44
E6: W 3.56; G 5.15; V 3.04; N 4.71; S 4.96; Q 4.65; I 4.08; C 4.69; P 4.8; R 4.36; T 3.27; H 4.79; F 3.39; L 2.68; M 4.42; K 4.64
